In the assay the target is T1, human CD24 on human cancer cell lines (MCF7, A549, Huh7) (human, UniProt P25063 27-59).
T1 construct: whole, on cells; Endogenous CD24 on cancer cell lines
T1 chain (looked up): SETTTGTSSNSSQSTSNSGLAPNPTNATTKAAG
Description: flow cytometry on fixed MCF-7 cells, FITC anti-human IgG. (Flow cytometry measures light scatter and fluorescence of single cells or particles in a stream.)

B1: anti-CD24 antibody #1 (Fc fusion)
VH: MAQVQLLESGGGVVQPGRSLRLSCAASGFTFSSYGMHWVRQAPGKGLEWVSGMSGDGLATYYADSVKGRFTISRDNSKNTLYLQMNSLRAEDTAVYYCARDSSSWYGGYYYYYGMDVWGQGTTVTVSSGS
VL: DIQMTQSPSSVSASVGDRVTITCRASQGISSWLAWYQQKPGKAPKLLIYAASSLQSGVPPRFSGSGSGTDFTLTISSLQPEDFATYYCQQSYSTPLTFGGGTKVEIKR
notes: also called Candidate 1; αCD24 antibody (#1)
As to B1, the binding result was “binds”.

B2: anti-CD24 antibody #2 (Fc fusion)
VH: MAQVQLVQSGGGLIQPGGSLRLSCAASGFTVSSNYMSWVRQAPGKGLEWVSVIYSGGSTYYADSVKGRFTISRDNSKNTLYLQMNSLRAEDTAVYYCAREYGDYFDYWGQGTLVTVSSGS
VL: QSALTQPASVSGSPGQSITISCTGTSSDVGGYDHVSWYQQHPGKAPKLMIYEVTKRPSGVSDRFSGSKSGNTASLTISGLQADDEADYYCSSYAGSNSVLFGGGTQLTVLG
notes: also called Candidate 2
As for B2, the binding result is “binds”.
